From publication PMC3540129

Tests used:
[1] = target: Kv7.5 (KCNQ5) B-D construct (Q5BD), tag removed (human) (UniProt Q9NR82); assay: SEC
[2] = target: Kv7.4 (KCNQ4) B segment (Q4B, residues 522-557), tag removed (human) (UniProt P56696); assay: SEC-MALS
Sequence of UniProt P56696 (P56696 522-557): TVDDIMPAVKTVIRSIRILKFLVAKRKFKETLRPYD

Substance | stoichiometry N [1] | stoichiometry N [2]
Kv7.5 (KCNQ5) B-D construct (Q5BD), tag removed (from UniProt Q9NR82 1-932) (domain or fragment) | 4 | 
Calmodulin (CaM), full-length native (from UniProt P0DP23 1-149) (natural protein) |  | 1
